Data reported in paper PMC12041213 (Nature Communications, 2025).
Substitutions are numbered along the chain they refer to.

Legend:
Assay in all cases: co-IP
[1] = target: T1, His-Ash1-2SA (Ash1-S149A S388A) (S. cerevisiae, UniProt P34233 1-588, S149A | S388A)
T1 sequence (looked up): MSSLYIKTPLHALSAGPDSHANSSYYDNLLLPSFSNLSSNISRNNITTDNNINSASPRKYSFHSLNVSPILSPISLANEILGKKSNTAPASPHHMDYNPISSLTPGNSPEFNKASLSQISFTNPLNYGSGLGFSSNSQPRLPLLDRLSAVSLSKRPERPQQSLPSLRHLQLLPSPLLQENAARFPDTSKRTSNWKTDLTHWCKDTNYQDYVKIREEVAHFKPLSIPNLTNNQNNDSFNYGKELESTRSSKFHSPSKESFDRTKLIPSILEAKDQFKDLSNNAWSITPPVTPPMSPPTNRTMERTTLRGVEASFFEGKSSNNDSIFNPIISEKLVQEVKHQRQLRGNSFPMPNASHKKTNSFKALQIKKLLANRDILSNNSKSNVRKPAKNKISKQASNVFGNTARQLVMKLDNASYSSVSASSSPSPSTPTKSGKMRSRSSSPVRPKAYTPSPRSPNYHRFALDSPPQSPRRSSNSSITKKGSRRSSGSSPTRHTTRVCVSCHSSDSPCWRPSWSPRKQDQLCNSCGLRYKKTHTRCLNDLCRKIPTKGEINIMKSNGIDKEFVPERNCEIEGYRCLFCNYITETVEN

[2] = target: T2, His-Ash1 phosphorylated by Tpk2-CBP (S. cerevisiae, UniProt P34233 1-588, phosphorylated by Tpk2-CBP at S149 and S388)
T2 sequence (looked up): T1 sequence (looked up) with A149S, A388S

[3] = target: T3, His-Ash1 (purified recombinant) (S. cerevisiae, UniProt P34233 1-588)
T3 sequence (looked up): T1 sequence (looked up) with A149S, A388S

Measured: binding result

B1: Ubp8-FLAG (purified recombinant) (enzyme, S. cerevisiae, UniProt P50102 1-471, looked up)
chain: MSICPHIQQVFQNEKSKDGVLKTCNAARYILNHSVPKEKFLNTMKCGTCHEINSGATFMCLQCGFCGCWNHSHFLSHSKQIGHIFGINSNNGLLFCFKCEDYIGNIDLINDAILAKYWDDVCTKTMVPSMERRDGLSGLINMGSTCFMSSILQCLIHNPYFIRHSMSQIHSNNCKVRSPDKCFSCALDKIVHELYGALNTKQASSSSTSTNRQTGFIYLLTCAWKINQNLAGYSQQDAHEFWQFIINQIHQSYVLDLPNAKEVSRANNKQCECIVHTVFEGSLESSIVCPGCQNNSKTTIDPFLDLSLDIKDKKKLYECLDSFHKKEQLKDFNYHCGECNSTQDAIKQLGIHKLPSVLVLQLKRFEHLLNGSNRKLDDFIEFPTYLNMKNYCSTKEKDKHSENGKVPDIIYELIGIVSHKGTVNEGHYIAFCKISGGQWFKFNDSMVSSISQEEVLKEQAYLLFYTIRQVN
binds: all assays above
